Reference: patent US20160339092A1 (IMMATICS BIOTECHNOLOGIES, published 2016)

Molecular target: T1, HLA-A*02:01 (human)
T1 construct: complexes captured on streptavidin plates and detected with anti-b2m; also called peptide-receptive MHC molecules
Experiment: UV-exchange MHC ELISA; ++ = yield >=20%
Source text: Candidate peptides for T cell based therapies according to the present invention were further tested for their MHC binding capacity (affinity). The individual peptide-MHC complexes were produced by UV-ligand exchange, where a UV-sensitive peptide is cleaved upon UV-irradiation, and exchanged with the peptide of interest as analyzed. Only peptide candidates that can effectively bind and stabilize the peptide-receptive MHC molecules prevent dissociation of the MHC complexes. To determine the yield of the exchange reaction, an ELISA was performed based on the detection of the light chain (β2m) of stabilized MHC complexes. The assay was performed as generally described in Rodenko et al. (Rodenko et al., 2006).
96 well MAXISorp plates (NUNC) were coated over night with 2 ug/ml streptavidin in PBS at room temperature, washed 4× and blocked for 1 h at 37° C. in 2% BSA containing blocking buffer. Refolded HLA-A*02:01/MLA-001 monomers served as standards, covering the range of 15-500 ng/ml. Peptide-MHC monomers of the UV-exchange reaction were diluted 100 fold in blocking buffer. Samples were incubated for 1 h at 37° C., washed four times, incubated with 2 ug/ml HRP conjugated anti-β2m for 1 h at 37° C., washed again and detected with TMB solution that is stopped with […]. Absorption was measured at 450 nm. […]

peptide exchange yield: 20 to 50%
Binder: ALLNAILHSA [ALLNAILHSA (SEQ ID NO: 132)]
